The chains are these.
B1: CPEB3 Ribozyme (parent)
chain: GGGGGCCACAGCAGAAGCGUUCACGUCGCGGCCCCUGUCAGAUUCUGGUGAAUCUGCGAAUUCUGCUGU

The data set covers variants of B1. Briefly: self-cleavage, relative activity (ratio to wild type); higher = more cleavage; co-transcriptional.
For G14C U21A, the self-cleavage worked out at 0.477. For the variant G14C U21G, the self-cleavage was found to be 0.11. As for G14C U21C, the self-cleavage was 0.286. As to A15C A59C, the self-cleavage turned out to be 0.288. On to G14U U20G, for which the self-cleavage was determined as 0.137. G14U U20A: the self-cleavage amounted to 0.121.

For G14C G19A, the self-cleavage was found to be 0.136.

For G14C U38G, the self-cleavage is 0.157. Regarding G14U A15G, the self-cleavage stood at 0.843. In the case of G14C U61A, the self-cleavage is 0.346. For the variant G14C U61G, the self-cleavage is 0.266. With G14C G30A, the self-cleavage worked out at 0.255. In the case of G14U U67C, the self-cleavage came to 0.55.

Turning to G14U U67G, the self-cleavage was 0.77.

Consider G14A U46C, for which the self-cleavage amounted to 0.709. G14A U46G: the self-cleavage was found to be 0.844. Regarding G14U G37U, the self-cleavage was found to be 0.129. As to G14U G37C, the self-cleavage stood at 0.129. For G14U C29U, the self-cleavage amounted to 0.111. Take G14U C29G: the self-cleavage is 0.167. Turning to G14U C29A, the self-cleavage stood at 0.19.

For G14C U20A, the self-cleavage amounted to 0.102. Consider G14C U20C, for which the self-cleavage was 0.116. Turning to G14A G41A, the self-cleavage came to 0.196. G14U A40G: the self-cleavage turned out to be 0.425. For the variant G14U A40U, the self-cleavage amounted to 0.179. G14C G41A: the self-cleavage was 0.16. Turning to G14C G41U, the self-cleavage came out at 0.231.

For G14C G41C, the self-cleavage was determined as 0.192. For the variant G14U C54A, the self-cleavage was found to be 0.266.

Consider G14U C54U, for which the self-cleavage turned out to be 0.734. Regarding G14U C54G, the self-cleavage worked out at 0.363. G14U A42U: the self-cleavage was 0.425. Then G14U A42C, with 0.523; and G14U G47C, with 0.877; and G14U G47A, with 0.836.

With G14U G47U, the self-cleavage came to 0.857.

G14C C22U: the self-cleavage was 0.0705. Regarding G14C C22G, the self-cleavage was found to be 0.122. With G14C C22A, the self-cleavage worked out at 0.142. Consider G14C C27A, for which the self-cleavage amounted to 0.146. Then G14C C27G, with 0.159; and G14C C27U, with 0.14; and G14A U44G, with 0.64. In the case of G14A U44C it was 0.363; in that of G14A U44A, 0.538; in that of G14U G58C, 0.72.

As to G14U G58A, the self-cleavage came out at 0.679. On to G14U U64G, for which the self-cleavage turned out to be 0.481.

As to G14U U64A, the self-cleavage was 0.458. On to G14U U64C, for which the self-cleavage turned out to be 0.401. As for G14U A51C, the self-cleavage was found to be 0.61. On to G14U A51G, for which the self-cleavage was 0.842. Then G14U C33A, with 0.522; and G14U C33U, with 0.79; and G14C G68C, with 0.607.

Regarding G14C G68A, the self-cleavage came out at 0.704. Consider G14C G68U, for which the self-cleavage stood at 0.64.

With G14C C45G, the self-cleavage stood at 0.468.

Turning to G14C C45A, the self-cleavage amounted to 0.406. Consider G14C C45U, for which the self-cleavage was found to be 0.562. Regarding G14U U55G, the self-cleavage was determined as 0.268. As for G14U U55C, the self-cleavage is 0.345.

As for G14A U20G, the self-cleavage is 0.124. As for G14A U20A, the self-cleavage came to 0.132.

For the variant G14C U67A, the self-cleavage was 0.468. Take G14C U67G: the self-cleavage came out at 0.549. For the variant G14C U67C, the self-cleavage was 0.443. In the case of G14U C66A, the self-cleavage amounted to 0.374. For G14U C66G, the self-cleavage is 0.325.

Take G14C G65C: the self-cleavage is 0.231. Consider G14C G65A, for which the self-cleavage was 0.291.

As for G14C A59U, the self-cleavage was found to be 0.263. With G14C A59C, the self-cleavage amounted to 0.262.

Take G14A G56A: the self-cleavage is 0.466.

Consider G14A G56U, for which the self-cleavage is 0.321. Then G14A G56C, with 0.261. On to G14C U26G, for which the self-cleavage was 0.256. For the variant G14C U26C, the self-cleavage amounted to 0.327. Regarding G14U U38A, the self-cleavage turned out to be 0.566.

Consider G14U U38G, for which the self-cleavage is 0.111. Consider G14U U38C, for which the self-cleavage worked out at 0.573. With G14U U62G, the self-cleavage turned out to be 0.513. Then G14U U62C, with 0.364; and G14A G50C, with 0.61. With G14A G50A, the self-cleavage came out at 0.778. In the case of G14A G50U it was 0.743; in that of G14U C32A, 0.333. Then G14U C32U, with 0.816; and G14U C35U, with 0.601. As to G14U C35G, the self-cleavage was 0.309.

Regarding G14U C18A, the self-cleavage is 0.142. Consider G14U C18U, for which the self-cleavage came out at 0.225. As to G14U C18G, the self-cleavage worked out at 0.0825.

For G14U C39G, the self-cleavage was determined as 0.373. For the variant G14U C39U, the self-cleavage worked out at 0.394. Regarding G14A G68C, the self-cleavage was determined as 0.756. On to A15C A51C, for which the self-cleavage was determined as 0.752. On to G14C A51G, for which the self-cleavage worked out at 0.666. G14C A51C: the self-cleavage amounted to 0.337.

For G14A G28C, the self-cleavage was 0.146. Then A15C C22U, with 0.2; and G14A G65C, with 0.311; and G14A G65U, with 0.3. Take G14U G19A: the self-cleavage is 0.148. On to G14U U49C, for which the self-cleavage turned out to be 0.678.

For the variant G14U U49G, the self-cleavage is 0.867.

Regarding G14U U36A, the self-cleavage turned out to be 0.18.

For G14C G37A, the self-cleavage was found to be 0.151. In the case of G14C G37U, the self-cleavage amounted to 0.183.

Take G14C G37C: the self-cleavage is 0.127. For the variant G14A U53C, the self-cleavage was determined as 0.273. With G14A U55G, the self-cleavage was 0.172.

As to G14A U55C, the self-cleavage came to 0.281. Take G14U A52C: the self-cleavage stood at 0.715. Regarding G14U A52U, the self-cleavage is 0.767. Turning to G14U U61G, the self-cleavage came to 0.432.

For the variant G14U U61C, the self-cleavage came to 0.367. Then G14C C63U, with 0.862; and G14C C63A, with 0.928. Consider G14C A42G, for which the self-cleavage was 0.266.

Regarding G14C A42U, the self-cleavage worked out at 0.228. G14C A42C: the self-cleavage came out at 0.331. In the case of G14U G48A, the self-cleavage came out at 0.893. In the case of G14U C57G, the self-cleavage turned out to be 0.246. On to G14U C57A, for which the self-cleavage was found to be 0.216.

Consider G14U C57U, for which the self-cleavage was found to be 0.351. A15C A42C: the self-cleavage worked out at 0.602. Turning to A15C A42U, the self-cleavage was 0.618. In the case of A15C A42G it was 0.678; in that of A15C A52G, 0.98; in that of G14A G37A, 0.191.

On to G14U G65A, for which the self-cleavage is 0.32. Regarding G14U G65C, the self-cleavage stood at 0.384. Regarding G14U G65U, the self-cleavage worked out at 0.334. For G14C G17C, the self-cleavage was found to be 0.119. On to G14C G17A, for which the self-cleavage was found to be 0.164.

Take G14C U46C: the self-cleavage is 0.48. Take G14C U46A: the self-cleavage was 0.651. For the variant G14C U46G, the self-cleavage was 0.599.

Turning to G14C C33A, the self-cleavage is 0.413. Consider G14C C33G, for which the self-cleavage turned out to be 0.293.

For the variant G14C C33U, the self-cleavage was 0.636. For the variant G14A C39U, the self-cleavage came out at 0.362. For the variant G14A C39G, the self-cleavage amounted to 0.385. Then G14C C18G, with 0.101.

Turning to G14U U46A, the self-cleavage came to 0.862. On to G14U U46C, for which the self-cleavage was 0.758. In the case of A15C C35G it was 0.285; in that of A15C C35A, 0.229. Then G14A G48A, with 0.868; and G14A G48U, with 0.943. As to G14A G48C, the self-cleavage came to 0.836.

In the case of G14A G47C, the self-cleavage turned out to be 0.827. In the case of G14A G47U, the self-cleavage turned out to be 0.889. For G14C G31A, the self-cleavage is 0.228. Consider G14C G31C, for which the self-cleavage turned out to be 0.167. In the case of G14C G31U it was 0.179. With G14A U43C, the self-cleavage came out at 0.624. On to G14A U43A, for which the self-cleavage was determined as 0.306. For the variant G14A U43G, the self-cleavage amounted to 0.23. As for G14A C54A, the self-cleavage stood at 0.239.

Take G14A G17U: the self-cleavage was determined as 0.111. As for G14A U67G, the self-cleavage was determined as 0.682.

In the case of G14A U67A, the self-cleavage was 0.635.

Take G14A U67C: the self-cleavage was found to be 0.583.

As to G14U G31A, the self-cleavage came out at 0.305.

These data come from the RNAGym collection of RNA variant scans (doi:10.7554/elife.80360).
